Experiment [1] concerns the target TrnC (Bacillus thuringiensis). The experiment is described as follows: MST; TrnC fluorescently labeled with RED-NHS; series of diluted TrnD (or TrnD(ΔRRE), or an equimolar mixture of TrnD with TrnA or TrnB) mixed with it in capillaries; Monolith instrument; aerobic conditions.
In experiment [2] the target is TrnC (Bacillus thuringiensis). The experiment is described as follows: pull-down; 6× His-tagged TrnC and non-tagged TrnD coexpressed in E. coli from a pRSFduet-1-derived construct; cell lysate purified on Ni-NTA; SDS-PAGE.
The target in experiment [3] is TrnD (Bacillus thuringiensis). In words: MST; TrnD fluorescently labeled; TrnC R370A/K372A mutant as the other partner.

pKd: −log10 of the molar value.

As to “equimolar mixture of TrnD and TrnA (complex)”, in experiment [1], the pKd is 6.27.
With TrnD(ΔRRE) (enzyme), the pKd in experiment [1] is 4.00.
non-tagged TrnD (enzyme): the stoichiometry N in experiment [2] was 1.
For the substance TrnC R370A/K372A mutant (enzyme), in experiment [3], the negative-log Kd (pKd) is 4.99.
